Test results published in patent US10865391B2, “Glutamate dehydrogenase mutants and their application in preparation of L-phosphinothricin” (ZHEJIANG UNIVERSITY, priority 2018, dated 2020).

Assay: Standard enzyme activity measurement toward PPO, crude enzyme (per volume fermentation broth)
Type: biochemical
Conditions: toward PPO; for Fold change: enzyme activity of mutant versus wild type
Experimental: The preserved recombinant E. coli is streaked onto the plate for activation. Single colonies are picked and inoculated into 5 mL LB liquid medium containing 50 μg/mL kanamycin and cultured at 37° C. for 12 h. The culture is transferred to 50 mL fresh LB liquid medium containing 50 μg/mL kanamycin at a 2% inoculum, and then incubated at 37° C. until the OD600 reaches 0.6; after that, add IPTG to a final concentration of 0.5 mM, and then proceed with induction culture under the temperature of 18° C. for 16 h.
After the cultivation, the culture is centrifuged at 10000 rpm for 10 min; discard supernatant, and collect cells. The harvested cells are washed for 2 times using pH 7.5 50 mM phosphate buffer. After that, the cells are re-suspend into the pH 7.5 phosphate buffer and disrupted ultrasonically (400W for 30 times, Ultrasonic time is 3 s, and the interval is 7 s). The cell disrupted solution is centrifuged at 12000 g for 5 min at 4° C. to remove the precipitate, and the supernatant obtained is the crude enzyme containing recombinant glutamate dehydrogenase
The standard enzyme activity measurement system: Appropriate amount of enzyme, 100 mM substrate, 10 mM coenzyme (NADH or NADPH), 500 mM NH4^+ ((NH4)2SO4); total system volume is up to 400 μL; reaction medium is pH 7.5 phosphate buffer. 35° C. reaction for 10 min; after that, add 40 uL 5 M NaOH to terminate reaction.
Definition of enzyme activity unit: The quantity of enzyme as required by generation of 1 μmol L-phosphinothricin per minute under standard reaction conditions.
Proceed with induction culture of constructed mutants, and prepare crude enzyme solution.

[1] = crude enzyme, standard system, N.D. = no detectable activity

B1: PeGluDH-V375A: PeGluDH mutant V375A, SEQ ID NO. 6 (protein)
chain: MIESVDHFLARLQQRDPAQPEFHQAVEEVLRSLWPFLEQNPHYLEAGILERMVEPERAVLFRVSWVDDQGKVQVNRGYRIQMSSAIGPYKGGLRFHPSVNLGVLKFLAFEQVFKNSLTSLPMGGGKGGSDFDPKGKSDAEVMRFCQAFMSELYRHIGADLDVPAGDIGVGAREIGFLFGQYKRLANQFTSVLTGKGMTYGGSLIRPEATGYGCVYFAEEMLKRQEQRIDGRRVAISGSGNVAQYAARKVMDLGGKVISLSDSEGTLFCEAGLTDEQWDALMELKNVKRGRISELAGRFGLEFRKGQTPWSLACDIALPCATQNELNADDARTLLRNGCICVAEGANMPTTLDAVDIFIEAGILYAPGKASNAGGAAVSGLEMSQNAMRLLWTAGEVDSKLHHIMQSIHHVCVHYGEEADGRINYVKGANIAGFVKVADAMLAQGVV
modifications: Pseudomonas entomophila glutamate dehydrogenase mutant
Fold change: 107
Enzyme activity of mutants (U/mL) [1]: 11.06 U/mL

B2: LsGluDHp-V386A: LsGluDHp mutant V386A, SEQ ID NO. 8 (protein)
chain: MTITTVSNEQLAKEYVDGVFEQLKQQNCHQAEFLQAAEEIFISLVPVFVQHPEYIKANILSRIVEPDRIISFRVAWQDDHNQVQVNRGYRVQYSNVMGPYKGGLRFHPSVNESIIKFLGFEQIFKNALTGQPIGGGKGGSNFDPKGKSDSEIMRFCQAFMTELYRHIGPDVDVPAGDIGVGAREVGYLWGQYKRLTKASESGVLTGKTPGYGGSLARKEATGYGTVYFVNEMLKDVNDSFEGKTVVVSGSGNVSTYAIEKAQQYGAKVVACSDSSGYIYDPEGLDLDVIKEIKEVKGDRISTYVSYRPNATFTNGCTGIWTIPCDIALPCATQNEINGESARTLISNGVKAIGEGANMPSDLEAINEFLNAGVLFGPAKAANAGGAAVSALEMAQDSSRVFWSFEEVDAKLHQIMKDIYSDSKAAAEKYGFPGNLVMGANIAGFIKVADGMLTEGIY
modifications: Lysinibacillus sphaericus glutamate dehydrogenase mutant
Fold change: 588
Enzyme activity of mutants (U/mL) [1]: 12.34 U/mL

B3: GsGluDH-A153G: GsGluDH mutant A153G, SEQ ID NO. 9 (protein)
chain: MAADKHTEEKGQQDDVLASTQIVIHRALEKLGYPEEVYELLKEPIRVLTVRIPVRMDDGSVKIFTGYRAQHNDAVGPTKGGVRFHPDVTEREVKALSIWMSLKCGIVDLPYGGGKGGIVCDPRTMSFRELERLSRGYVRAISQIVGPTKDIPGPDVFTNSQIMAWMMDEYSRIREFDSPGFITGKPLVLGGSHGRETATAKGVTICIREAAKKRGLSLEGARVVVQGFGNAGSYLAKFLHDAGAKVVGISDVYGALYDPNGLDIDYLLERRDSFGTVTKLFKNTISNKELLELDCDILVPAAIENQITAENAPRIKASIVVEAANGPTTLEATEILTQRGILLVPDVLASAGGVTVSYFEWVQNNQGYYWTEEEVEQRLEKVMVKAFNNVYEMAQTRRVDMRLAAYMVGVRKMAEACRFRGWV
modifications: Geobacillus stearothermophilus glutamate dehydrogenase mutant
Enzyme activity of mutants (U/mL) [1]: 0.04 U/mL

B4: BsGluDH-A154G: BsGluDH mutant A154G, SEQ ID NO. 11 (protein)
chain: MSAKQVSKDEEKEALNLFLSTQTIIKEALRKLGYPGDMYELMKEPQRMLTVRIPVKMDNGSVKVFTGYRSQHNDAVGPTKGGVRFHPEVNEEEVKALSIWMTLKCGIANLPYGGGKGGIICDPRTMSFGELERLSRGYVRAISQIVGPTKDIPGPDVYTNSQIMAWMMDEYSRLREFDSPGFITGKPLVLGGSQGRETATAQGVTICIEEAVKKKGIKLQNARIIIQGFGNAGSFLAKFMHDAGAKVIGISDANGGLYNPDGLDIPYLLDKRDSFGMVTNLFTDVITNEELLEKDCDILVPAAISNQITAKNAHNIQASIVVEAANGPTTIDATKILNERGVLLVPDILASAGGVTVSYFEWVQNNQGYYWSEEEVAEKLRSVMVSSFETIYQTAATHKVDMRLAAYMTGIRKSAEASRFRGWV
modifications: Bacillus subtilis glutamate dehydrogenase mutant
Enzyme activity of mutants (U/mL) [1]: 0.50 U/mL

B5: BmGluDH-A156G: BmGluDH mutant A156G, SEQ ID NO. 13 (protein)
chain: MVADKMQDSKNSQEEKHDVLKSTQTVIHKALEKLGYPDEVYELLKEPLRMMTVKIPVRMDDGSVKIFTGHRAQHNDAVGPTKGGIRFHPNVTEKEVKALSIWMSLKCGIVDLPYGGGKGGIVCDPRNMSFGELERLSRGYVRAISQIVGPTKDIPGPDVFTNSQIMAWMMDEYSRIDEFNSPGFITGKPLVLGGSHGRETATAKGVTICIREAAKKRGIELQGARVVVQGFGNAGSFLAKFMHDAGAKIVGISDAYGALHDPNGLDIDYLLDRRDSFGTVTKLFNNTISNKELLELDCDILVPAAIENQITEENAHNIQASIVVEAANGPTTLEATRILSERGILLVPDVLASAGGVTVSYFEWVQNNQGYYWTEEEVEEKLEKVMVKSFNNIYETSTTRKVDMRLAAYMIGVRKMAEGSRFRGWI
modifications: Bacillus megaterium glutamate dehydrogenase mutant
Enzyme activity of mutants (U/mL) [1]: 0.34 U/mL

B6: LsGluDH-A144G: LsGluDH mutant A144G, SEQ ID NO. 15 (protein)
chain: MSENLNLFTSTQDVIQDALNKLGYDEAMYELLKEPLRMLQVRIPVKMDDGTTKVFTGYRAQHNDAVGPTKGGVRFHPQVSEEEVKALSMWMTLKCGIVDLPYGGGKGGVICDPRQMSMGEIERLSRGYVRAVSQIVGPTKDIPGPDVFTNAQIMAWMMDEYSRMDEFNSPGFITGKPLVLGGSQGRDRATAQGVTIVIEEAAKKRGIDIKGARVVIQGFGNAGSFLAKFMHDLGAKVIGISDAYGALHDPEGLDIDYLLDRRDSFGTVTTLFENTISNKELLELDCDILVPAAIENQITADNAHNIKADIVVEAANGPTTAEATKILTERGILLVPDVLASAGGVTVSYFEWVQNNQGYYWTEEEVEERLYKKMVEAFDNVYTTATTRNINMRLAAYMVGVRRTAEASRFRGWV
modifications: Lysinibacillus sphaericus glutamate dehydrogenase mutant
Enzyme activity of mutants (U/mL) [1]: 1.69 U/mL

B7: CgGluDH: wild type glutamate dehydrogenase from Corynebacterium glutamicum, NP_601279.1, NADPH-specific (protein, UniProt P31026 1-447, looked up)
NADP-specific glutamate …: MTVDEQVSNYYDMLLKRNAGEPEFHQAVAEVLESLKIVLEKDPHYADYGLIQRLCEPERQLIFRVPWVDDQGQVHVNRGFRVQFNSALGPYKGGLRFHPSVNLGIVKFLGFEQIFKNSLTGLPIGGGKGGSDFDPKGKSDLEIMRFCQSFMTELHRHIGEYRDVPAGDIGVGGREIGYLFGHYRRMANQHESGVLTGKGLTWGGSLVRTEATGYGCVYFVSEMIKAKGESISGQKIIVSGSGNVATYAIEKAQELGATVIGFSDSSGWVHTPNGVDVAKLREIKEVRRARVSVYADEVEGATYHTDGSIWDLKCDIALPCATQNELNGENAKTLADNGCRFVAEGANMPSTPEAVEVFRERDIRFGPGKAANAGGVATSALEMQQNASRDSWSFEYTDERLQVIMKNIFKTCAETAAEYGHENDYVVGANIAGFKKVADAMLAQGVI
Enzyme activity of wild type (U/mL) [1]: 0.011 U/mL
